The results in this text go back to US12404318B2, “Combination HBV therapy” (priority 2018, dated 2025).

The test system of one series is HBV genotype C. Nature of the series: Serum clearance of HBsAg and viral entry inhibition in PXB-Mouse model (Example 3). It counts as in vivo, uPA/SCID mice with transplanted primary human hepatocytes. The note with it: HBC34 antibody (HBC34-v35-mu-IgG2a) 15 mg/kg, not in combination with the siRNA.
For series [1], the system named is HBV (rAAV8-1.3HBV strain ayw, D type). Description: Combination therapy study in AAV-HBV mice (Example 1): serum HBsAg and HBV DNA. It counts as in vivo, C57BL/6 mice. As for the experimental part: The mice (C57BL/6 strain) were inoculated with the following amount of rAAV8-1.3HBV strain ayw, D type: 1.0×10^11 viral genomes per mouse in 200 μl volume via tail veins injection. Four weeks after viral inoculation, treatment with test compounds was initiated.
Entecavir was administered orally once per day.

Another series concerns the target antigenic loop of HBsAg. Nature of the series: Binding to HBsAg. More on the design: species or system HBV.
A further series relates to HBV. Description: HBV neutralization. Type of series: cell-based. The note with it: human antibodies against HBsAg. As for the experimental part: To study and quantitate virus infectivity (or “neutralization”) in the laboratory the person skilled in the art knows various standard “neutralization assays.” For a neutralization assay, animal viruses are typically propagated in cells and/or cell lines. In the context of the present disclosure, for a neutralization assay, cultured cells may be incubated with a fixed amount of HBV in the presence (or absence) of the antibody to be tested. As a readout, the levels of hepatitis B surface antigen (HBsAg) or hepatitis B e antigen (HBeAg) secreted into the cell culture supernatant may be used and/or HBcAg staining may be assessed. In one embodiment of a HBV neutralization assay, cultured cells, for example HepaRG cells, in particular differentiated HepaRG cells, are incubated with a fixed amount of HBV in the presence or absence of the antibody to be tested, for example for 16 hours at 37° C. The incubation may be performed in a medium (e.g., supplemented with 4% PEG 8000). After incubation, cells may be washed and further cultivated. To measure virus infectivity, the levels of hepatitis B surface antigen (HBsAg) and hepatitis B e antigen (HBeAg) secreted into the culture supernatant, e.g., from day 7 to day 11 post-infection, may be determined by enzyme-linked immunosorbent assay (ELISA). Additionally, HBcAg staining may be assessed in an immunofluorescence assay.

The target of the next series is HBsAg (Hepatitis B virus genotype D subtype ayw, UniProt P03138). Nature of the series: Activity measured diagnostically with an immunoassay. It counts as binding, HBV.

Description for HBV genotype C: An immune-deficient mouse having transplanted human hepatocytes was used to test the effectiveness of a combination therapy with an HBV-specific siRNA and an anti-HBV antibody in clearing HBsAg.
Primary human hepatocytes were transplanted into SCID mice for which mouse hepatocytes had previously been destroyed enzamatically. The mice were T- and B-cell deficient. […] Mice were inoculated via tail vein injection with HBV genotype C at 1.0×10^7 viral genomes per mouse. Treatments began eight weeks post-infection.
HBV-infected mice (n=4 per treatment group) were administered one of seven different treatments: (1) PBS only; (2-4) an anti-HBV antibody (a fully murinized HBC34v35 antibody, HBC34-v35-mu-IgG2a), at one of three doses, administered intraperitoneally twice per week during weeks two and three; or (5-7) an HBV-specific siRNA (HBV02, having an antisense strand of SEQ ID NO:8; see description in Example 1) administered subcutaneously once at the beginning of the study, and the fully murinized HBC34v35, at one of three antibody doses, administered intraperitoneally twice per week during weeks two and three (see Table 7). Mice were sacrificed at week 6.
Serum samples were collected periodically throughout the study, and viral load, HBsAg, and free HBC34 antibody were measured.

On to “HBC34: human monoclonal antibody against HBsAg antigenic loop; VH SEQ ID NO:53, VL SEQ ID NO:55”, for which, in the series on HBV genotype C (FIG. 9), the “Serum HBV DNA concentration, antibody monotherapy” value is “lower”. Besides, the “Serum HBsAg concentration, antibody monotherapy” value in the series on HBV genotype C (FIG. 10) is listed as “lower”. In addition, the “Reduction of serum HBV DNA (viral load) relative to the saline control” value in series [1] (AAV/HBV-infected C57BL/6 mice, HBV02 3 mg/kg, HBC34 antibody (HBC34-v7-mu-IgG2a) 15 mg/kg, alone or combined, FIGS. 2A, 2B) is “no effect”. Besides, in series [1] (AAV/HBV-infected C57BL/6 mice, HBV02 3 mg/kg, HBC34 antibody (HBC34-v7-mu-IgG2a) 15 mg/kg, alone or combined, FIGS. 3A, 3B), the “Reduction of serum HBsAg relative to the saline control” value is given as under 1 log10. For the same molecule, on antigenic loop of HBsAg, the “Affinity of binding to the antigenic loop of HBsAg” value was “high affinity (in the pM range)”; the “HBV genotypes and mutants recognized” value is “all 10 HBV genotypes and 18 mutants”. The “Stoichiometry of binding to spherical SVPs” value in the series with antigenic loop of HBsAg (spherical subviral particles) is “low stoichiometry”. In addition, the Neutralizing activity entry in the series on HBV is on record as “high neutralizing activity”. Besides, the “Activity as measured diagnostically with an immunoassay” value in the series with HBsAg amounted to 5000 IU/mg.

B1: HBC24: human antibody against HBsAg, VH SEQ ID NO:75, VL SEQ ID NO:76; murinized heavy and light chains SEQ ID NOs:103 and 104 (antibody, V domains shown)
VH: EVQLLESGGGLVQPGGSLRLSCAASGSTFTKYAMSWVRQAPGKGLEWVASISGSVPGFGIDTYYADSVKGRFTISRDTSKNTLYLQMNSLRAEDTALYYCAKDVGVIGSYYYYAMDVWGQGTAVTVSS
VL: EIVLTQSPGTLSLSPGERATLSCRASQGLSSSYLAWYQQKPGQAPRLLIYSASTRATGIPDRFSGSGSGTDFTLTISRLEPEDFAVYYCQQYAYSPRWTFGQGTKVEIK
modifications: Synthetic sequence HBC24 VH; Synthetic sequence HBC24 VL
In the case of B1, the Neutralizing activity result in the series with HBV is reported as “high neutralizing activity”.

B2: HBC34v7 (antibody, V domains shown)
VH: ELQLVESGGGWVQPGGSQRLSCAASGRIFRSFYMSWVRQAPGKGLEWVATINQDGSEKLYVDSVKGRFTISRDNAKNSLFLQMNNLRVEDTAVYYCAAWSGNSGGMDVWGQGTTVSVSS
VL: SYELTQPPSVSVSPGQTVSIPCSGDKLGNKNVCWFQHKPGQSPVLVIYEVKYRPSGIPERFSGSNSGNTATLTISGTQAMDEAAYFCQTFDSTTVVFGGGTRLTVL
modifications: Synthetic sequence HBC34 VH; Synthetic sequence HBC34v7 VL
As for B2, the “HBsAg levels from mouse serum (average log HBsAg content)” value came out at 4.64 log IU/ml in series [1] (Treatment 2: HBC34v7 15 mg/kg, day 0 post-dose); 4.58 log IU/ml in series [1] (Treatment 2: HBC34v7 15 mg/kg, day 3 post-dose); 4.46 log IU/ml in series [1] (Treatment 2: HBC34v7 15 mg/kg, day 7 post-dose); 4.42 log IU/ml in series [1] (Treatment 2: HBC34v7 15 mg/kg, day 10 post-dose); 4.34 log IU/ml in series [1] (Treatment 2: HBC34v7 15 mg/kg, day 14 post-dose); 3.87 log IU/ml in series [1] (Treatment 2: HBC34v7 15 mg/kg, day 17 post-dose). The “HBsAg levels from mouse serum (average log HBsAg content)” value is listed as 4.09 log IU/ml in series [1] (Treatment 2: HBC34v7 15 mg/kg, day 21 post-dose); 3.65 log IU/ml in series [1] (Treatment 2: HBC34v7 15 mg/kg, day 24 post-dose); 4.15 log IU/ml in series [1] (Treatment 2: HBC34v7 15 mg/kg, day 28 post-dose); 4.29 log IU/ml in series [1] (Treatment 2: HBC34v7 15 mg/kg, day 31 post-dose); 4.25 log IU/ml in series [1] (Treatment 2: HBC34v7 15 mg/kg, day 35 post-dose); 4.26 log IU/ml in series [1] (Treatment 2: HBC34v7 15 mg/kg, day 38 post-dose). For the same molecule, the “HBsAg levels from mouse serum (average log HBsAg content)” value in series [1] (Treatment 2: HBC34v7 15 mg/kg, day 42 post-dose) was found to be 4.28 log IU/ml; in series [1] (Treatment 3: HBC34v7 5 mg/kg, day 0 post-dose) it was 4.49 log IU/ml; in series [1] (Treatment 3: HBC34v7 5 mg/kg, day 3 post-dose), 4.37 log IU/ml; in series [1] (Treatment 3: HBC34v7 5 mg/kg, day 7 post-dose) it was 4.44 log IU/ml; in series [1] (Treatment 3: HBC34v7 5 mg/kg, day 10 post-dose), 4.35 log IU/ml; in series [1] (Treatment 3: HBC34v7 5 mg/kg, day 14 post-dose) it was 4.30 log IU/ml. For the same molecule, the “HBsAg levels from mouse serum (average log HBsAg content)” value in series [1] (Treatment 3: HBC34v7 5 mg/kg, day 17 post-dose) is on record as 4.28 log IU/ml; in series [1] (Treatment 3: HBC34v7 5 mg/kg, day 21 post-dose), 4.32 log IU/ml; in series [1] (Treatment 3: HBC34v7 5 mg/kg, day 24 post-dose) it was 4.26 log IU/ml; in series [1] (Treatment 3: HBC34v7 5 mg/kg, day 28 post-dose) it was 4.23 log IU/ml; in series [1] (Treatment 3: HBC34v7 5 mg/kg, day 31 post-dose), 3.99 log IU/ml; in series [1] (Treatment 3: HBC34v7 5 mg/kg, day 35 post-dose), 3.99 log IU/ml. The “HBsAg levels from mouse serum (average log HBsAg content)” value in series [1] (Treatment 3: HBC34v7 5 mg/kg, day 38 post-dose) is recorded as 4.08 log IU/ml; in series [1] (Treatment 3: HBC34v7 5 mg/kg, day 42 post-dose), 4.05 log IU/ml; in series [1] (Treatment 4: HBC34v7 1 mg/kg, day 0 post-dose) it was 4.50 log IU/ml; in series [1] (Treatment 4: HBC34v7 1 mg/kg, day 3 post-dose), 4.46 log IU/ml; in series [1] (Treatment 4: HBC34v7 1 mg/kg, day 7 post-dose) it was 4.42 log IU/ml; in series [1] (Treatment 4: HBC34v7 1 mg/kg, day 10 post-dose) it was 4.37 log IU/ml. The “HBsAg levels from mouse serum (average log HBsAg content)” value in series [1] (Treatment 4: HBC34v7 1 mg/kg, day 14 post-dose) came to 4.40 log IU/ml; in series [1] (Treatment 4: HBC34v7 1 mg/kg, day 17 post-dose) it was 4.31 log IU/ml; in series [1] (Treatment 4: HBC34v7 1 mg/kg, day 21 post-dose), 4.31 log IU/ml; in series [1] (Treatment 4: HBC34v7 1 mg/kg, day 24 post-dose) it was 4.38 log IU/ml; in series [1] (Treatment 4: HBC34v7 1 mg/kg, day 28 post-dose), 4.29 log IU/ml; in series [1] (Treatment 4: HBC34v7 1 mg/kg, day 31 post-dose), 4.15 log IU/ml. The “HBsAg levels from mouse serum (average log HBsAg content)” value is listed as 4.16 log IU/ml in series [1] (Treatment 4: HBC34v7 1 mg/kg, day 35 post-dose); 4.09 log IU/ml in series [1] (Treatment 4: HBC34v7 1 mg/kg, day 38 post-dose); 4.08 log IU/ml in series [1] (Treatment 4: HBC34v7 1 mg/kg, day 42 post-dose); 4.51 log IU/ml in series [1] (Treatment 5: HBC34v7 0.1 mg/kg, day 0 post-dose); 4.36 log IU/ml in series [1] (Treatment 5: HBC34v7 0.1 mg/kg, day 3 post-dose); 4.31 log IU/ml in series [1] (Treatment 5: HBC34v7 0.1 mg/kg, day 7 post-dose). Moreover, the “HBsAg levels from mouse serum (average log HBsAg content)” value in series [1] (Treatment 5: HBC34v7 0.1 mg/kg, day 10 post-dose) turned out to be 4.17 log IU/ml; in series [1] (Treatment 5: HBC34v7 0.1 mg/kg, day 14 post-dose) it was 4.26 log IU/ml; in series [1] (Treatment 5: HBC34v7 0.1 mg/kg, day 17 post-dose) it was 4.17 log IU/ml; in series [1] (Treatment 5: HBC34v7 0.1 mg/kg, day 21 post-dose), 4.23 log IU/ml; in series [1] (Treatment 5: HBC34v7 0.1 mg/kg, day 24 post-dose), 4.25 log IU/ml; in series [1] (Treatment 5: HBC34v7 0.1 mg/kg, day 28 post-dose), 4.20 log IU/ml. The “HBsAg levels from mouse serum (average log HBsAg content)” value stood at 4.26 log IU/ml in series [1] (Treatment 5: HBC34v7 0.1 mg/kg, day 31 post-dose); 4.38 log IU/ml in series [1] (Treatment 5: HBC34v7 0.1 mg/kg, day 35 post-dose); 4.38 log IU/ml in series [1] (Treatment 5: HBC34v7 0.1 mg/kg, day 38 post-dose); 4.30 log IU/ml in series [1] (Treatment 5: HBC34v7 0.1 mg/kg, day 42 post-dose).
